Legend:
NHis-Purβ III = target: T1, NHis-Purβ III (Mus musculus, UniProt O35295 209-303); experiment: ssDNA-binding ELISA
T1 sequence: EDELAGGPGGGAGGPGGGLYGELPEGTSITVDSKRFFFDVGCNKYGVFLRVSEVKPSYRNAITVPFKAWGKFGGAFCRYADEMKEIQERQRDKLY

NHis-Purβ I-II-III [1] = target: T2, NHis-Purβ I-II-III (Mus musculus, UniProt O35295 41-303); experiment: ssDNA-binding ELISA
T2 sequence: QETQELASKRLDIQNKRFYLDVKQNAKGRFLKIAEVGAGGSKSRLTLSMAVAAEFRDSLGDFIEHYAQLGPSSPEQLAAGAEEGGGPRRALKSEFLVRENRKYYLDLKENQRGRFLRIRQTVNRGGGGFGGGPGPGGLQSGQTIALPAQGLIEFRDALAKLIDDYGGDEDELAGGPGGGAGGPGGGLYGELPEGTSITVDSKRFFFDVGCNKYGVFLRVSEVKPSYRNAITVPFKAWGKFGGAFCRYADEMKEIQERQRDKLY

NHis-Purβ (full-length) [2] = target: T3, NHis-Purβ (full-length) (Mus musculus, UniProt O35295 1-324); experiment: ssDNA-binding ELISA
T3 sequence: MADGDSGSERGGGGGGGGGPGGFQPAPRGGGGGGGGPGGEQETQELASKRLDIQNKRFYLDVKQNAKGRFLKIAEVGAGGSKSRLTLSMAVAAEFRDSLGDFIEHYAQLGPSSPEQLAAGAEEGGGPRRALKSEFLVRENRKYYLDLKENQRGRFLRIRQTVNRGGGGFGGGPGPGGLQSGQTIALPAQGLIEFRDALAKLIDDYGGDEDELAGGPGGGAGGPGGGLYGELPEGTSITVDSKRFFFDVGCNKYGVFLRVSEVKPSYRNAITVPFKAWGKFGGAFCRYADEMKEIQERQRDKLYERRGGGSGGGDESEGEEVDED

NHis-Purβ I-II-III [3] = target: T2, NHis-Purβ I-II-III; experiment: competition
NHis-Purβ (full-length) [4] = target: T3, NHis-Purβ (full-length); experiment: competition

Binder: GGGAGCAGAACAGAGGAATGCAGTGGAAGAGA (ssDNA) [PE32-bF]
- apparent K (half saturation) (NHis-Purβ III): 1.8 ± 0.74 nM
- apparent K (half saturation) (NHis-Purβ I-II-III [1]): 0.22 ± 0.05 nM
- apparent K (half saturation) (NHis-Purβ (full-length) [2]): 0.16 ± 0.05 nM
- IC50 (NHis-Purβ I-II-III [3]): 1 ± 0.3 nM
- IC50 (NHis-Purβ (full-length) [4]): 1.2 ± 0.2 nM
